Where only a bound is given, the exact number is not on record here.

Our source for the chemotactic response in Transwell migration assays values is US20160213771A1.

The experiment deals with CXC chemokine receptor 2 (CXCR2) (UniProt P25025). Kind of experiment: cell-based or functional assay.
UniProt P25025, sequence (P25025 whole entry): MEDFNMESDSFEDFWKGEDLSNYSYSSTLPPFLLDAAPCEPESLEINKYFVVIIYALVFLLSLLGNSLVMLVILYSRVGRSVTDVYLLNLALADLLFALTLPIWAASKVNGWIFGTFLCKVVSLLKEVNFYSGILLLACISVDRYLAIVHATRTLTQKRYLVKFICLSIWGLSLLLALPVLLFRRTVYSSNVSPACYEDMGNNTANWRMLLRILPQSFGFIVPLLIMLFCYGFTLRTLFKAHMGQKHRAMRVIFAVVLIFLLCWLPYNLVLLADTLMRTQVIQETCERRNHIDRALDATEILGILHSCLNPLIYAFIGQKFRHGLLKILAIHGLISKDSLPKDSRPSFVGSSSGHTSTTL

Consider “IL-8 (from UniProt P10145 28-99) (ligand)”, for which the chemotactic response in Transwell migration assays is above 500%.

As for UL146 (ligand), the chemotactic response in Transwell migration assays is above 500%.
